Data on 2 molecules can be found in US9163048B2, “Multi-functional nucleic acid-based anti-cancer drug capable of targeting and therapy, method for preparing same and anti-cancer composition comprising same” (RESEARCH & BUSINESS FOUNDATION SUNGKYUNKWAN UNIVERSITY, priority 2011, dated 2015).

The subject of series [1] is prostate cancer cells (LNCaP cell line). As to the kind of experiment: Anticancer effect, acridine orange / propidium iodide staining, confocal microscope. Type of series: cell-based. To be noted: 2 hours treatment, 24 hours culture, NIR radiation 10 minutes, 10 μM contained doxorubicin. The method, then: In addition, after the cells were treated with 10 μM (concentration of the contained doxorubicin) of the multifunctional nucleic-acid-based anticancer drug for 2 hours, the medium was exchanged with a fresh RPMI 1640 medium to remove the multifunctional nucleic-acid-based anticancer drug remaining at an outside of the cells, and the cells were cultured for 24 hours. Afterward, the cells were irradiated with […] for 10 minutes, and stained with acridine orange and propidium iodide (PI). As a control group, instead of the multifunctional nucleic-acid-based anticancer drug, a test was performed using phosphate buffered saline, doxorubicin, gold nanoparticles, an A10 aptamer and an anticancer-drug-captured nucleic acid structure.
This means that the multifunctional nucleic-acid-based anticancer drug can kill cells more effectively by applying both doxorubicin (chemotherapy) and an exothermic effect (thermal treatment).

The nature of series [2]: Capture of doxorubicin in linear nucleic acid, autofluorescence of unbound doxorubicin in supernatant. Format: physicochemical. The settings on record: per 1 μM linear nucleic acid (SEQ ID NOs 1 and 2); room temperature, 24 hours. The text has this: A supernatant was retrieved, and autofluorescence of the doxorubicin not binding to the linear nucleic acid was detected using a molecular device (SpectraMax M2 Microplate Reader).

Consider `COc1cccc2c1C(=O)c1c(O)c3c(c(O)c1C2=O)C[C@@](O)(C(=O)CO)C[C@@H]3O[C@H]1C[C@H](N)[C@H](O)[C@H](C)O1` [doxorubicin, reference compound], for which the “cell death (PI staining, red fluorescence)” value in series [1] is recorded as “dead cells stained with PI were observed”.

B1: linear nucleic acid (nucleic acid)
chain 1: GCTACGAGTAGGTACGGATCTGGCTGTACTGATGTGCCTGCGAC
chain 2: GTCGCAGGCACATCAGTACAGCCAGATCCGTACCTACTCG
modifications: chemistry not given here
As to B1, the “maximum doxorubicin bound per 1 μM linear nucleic acid” value in series [2] turned out to be 10 µM. Also, the “cell death (PI staining, red fluorescence)” value in series [1] is reported as “red fluorescence was hardly observed”.
